What all share (test): polyreactivity ELISA, antigen coated, 10 ug/mL binder
One test has as its target insulin.
Test [1] addresses keyhole limpet hemocyanin.
Test [2] addresses human serum albumin (human) (UniProt P02768).

In the case of Bococizumab (antibody), the results for the absorbance at 450 nm normalized against the no-antigen control (with insulin; in test [1]; in test [2]) were 21.4, 38.8 and 16.6, respectively.

Values taken from US20240010695A1.
